The values that follow come from publication PMC3276558, “The B-Cell Specific Transcription Factor, Oct-2, Promotes Epstein-Barr Virus Latency by Inhibiting the Viral Immediate-Early Protein, BZLF1”.

In the data set the target is Oct-2 Q221A (UniProt P09086 1-479, Q221A). In words: EMSA; EMSA with in vitro-translated protein and 32P-labelled annealed ds oligonucleotide; buffer, salt, pH and temperature not given in the material. The conditions noted are these: protein: ivt; label: 32P (T4 PNK, 5' end); blunt. For orientation: In EMSA bound probe runs differently from free probe, usually more slowly.
Oct-2 Q221A, sequence (P09086 whole entry Q221A): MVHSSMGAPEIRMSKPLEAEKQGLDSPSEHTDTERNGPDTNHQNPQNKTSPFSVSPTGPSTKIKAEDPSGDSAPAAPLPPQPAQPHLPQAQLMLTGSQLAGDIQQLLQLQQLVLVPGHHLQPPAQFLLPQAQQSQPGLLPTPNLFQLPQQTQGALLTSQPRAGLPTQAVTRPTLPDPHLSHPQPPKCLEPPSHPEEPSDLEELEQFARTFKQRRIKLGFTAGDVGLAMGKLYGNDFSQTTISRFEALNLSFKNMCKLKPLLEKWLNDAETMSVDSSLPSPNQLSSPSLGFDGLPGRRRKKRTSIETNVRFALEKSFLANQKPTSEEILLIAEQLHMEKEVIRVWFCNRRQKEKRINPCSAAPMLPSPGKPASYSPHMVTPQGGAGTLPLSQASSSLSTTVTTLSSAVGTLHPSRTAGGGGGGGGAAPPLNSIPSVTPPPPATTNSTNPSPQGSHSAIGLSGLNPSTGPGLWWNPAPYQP

B1: Oct probe (dsDNA)
DNA 1: CAGTGATGCAAATCTTGT
DNA 2: ACAAGATTTGCATCACTG
In the case of B1, the binding result was “no binding”.
